We go through 53 substances from patent US10472401B2, “Peptides and combination of peptides for use in immunotherapy against ovarian cancer and other cancers” (immatics biotechnologies GmbH, priority 2015, dated 2019).

The target in the assay is HLA-A*02:01 (Homo sapiens, UniProt P04439, D140Y/D185E/D98H/E176V/E277Q/G131W/G231S/I119V/I121R/I166T/I218V/L300P/L318F/N151K/N90K/P208A/P217A/Q86G/Q94H/R138H/R169H/T345S). Description: MHC binding assay (UV-ligand exchange, ELISA of stabilized MHC complexes). The conditions noted are these: MHC class I binding score; binding to HLA-A*02:01 ranged by peptide exchange yield (UV-ligand exchange, ELISA). The gist of the method:
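Peptide-MHC complexes made by UV-ligand exchange, cleaving a UV-sensitive placeholder peptide and replacing it with the test peptide. Exchange yield measured by ELISA: streptavidin-captured monomers (diluted 100-fold, 1 h, 37 °C) detected with HRP anti-β2m and TMB, absorbance at 450 nm.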
(In general: An ELISA detects its analyte on a solid surface through an enzyme-linked reagent.)
With “375 (SLTETIEGV; listed as Homo sapiens) [compound 375]”, the Peptide exchange result is reported as “″++″ (≥20% = ++)”. As to “376 (AMFESSQNVLL; listed as Homo sapiens) [compound 376]”, the Peptide exchange entry was “″++″ (≥20% = ++)”. Next, “377 (FLLDSSASV; listed as Homo sapiens) [compound 377]”: “″++″ (≥20% = ++)”. Next, “378 (ALGYFVPYV; listed as Homo sapiens) [compound 378]”: “″+++″ (≥50% = +++)”. For the substance “379 (IMEGTLTRV; listed as Homo sapiens) [compound 379]”, the Peptide exchange result was “″++″ (≥20% = ++)”. Next, “380 (TLIEDEIATI; listed as Homo sapiens) [compound 380]”: “″++″ (≥20% = ++)”; “381 (FIDEAYVEV; listed as Homo sapiens) [compound 381]”: “″++″ (≥20% = ++)”; “382 (ALQNYIKEA; listed as Homo sapiens) [compound 382]”: “″++″ (≥20% = ++)”. Next, “383 (ALLELENSVTL; listed as Homo sapiens) [compound 383]”: “″+++″ (≥50% = +++)”; “385 (SLLEQGLVEA; listed as Homo sapiens) [compound 385]”: “″++″ (≥20% = ++)”. Regarding “386 (ILFRYPLTI; listed as Homo sapiens) [compound 386]”, the Peptide exchange entry was “″+++″ (≥50% = +++)”. Take “387 (ALFQATAEV; listed as Homo sapiens) [compound 387]”: the Peptide exchange entry is “″++++″ (≥75% = ++++)”. Next, “388 (SLTIDGIRYV; listed as Homo sapiens) [compound 388]”: “″+++″ (≥50% = +++)”. Consider “389 (LLADVTHLL; listed as Homo sapiens) [compound 389]”, for which the Peptide exchange result is on record as “″++″ (≥20% = ++)”. As to “390 (ALFMKQIYL; listed as Homo sapiens) [compound 390]”, the Peptide exchange result is reported as “″+++″ (≥50% = +++)”.

Regarding “391 (YVYPQRLNFV; listed as Homo sapiens) [compound 391]”, the Peptide exchange result is listed as “″+++″ (≥50% = +++)”. Next, “392 (ALLHPQGFEV; listed as Homo sapiens) [compound 392]”: “″++″ (≥20% = ++)”.

As for “393 (GLLDTQTSQVLTA; listed as Homo sapiens) [compound 393]”, the Peptide exchange entry is reported as “″++″ (≥20% = ++)”. Turning to “394 (LLAVIGGLVYL; listed as Homo sapiens) [compound 394]”, the Peptide exchange entry is reported as “″+++″ (≥50% = +++)”. For “395 (ALALGGIAVV; listed as Homo sapiens) [compound 395]”, the Peptide exchange entry is on record as “″++++″ (≥75% = ++++)”. Next, “396 (ALLPDLPAL; listed as Homo sapiens) [compound 396]”: “″+++″ (≥50% = +++)”; “397 (YLFGERLLEC; listed as Homo sapiens) [compound 397]”: “″+++″ (≥50% = +++)”; “398 (KLLEEDGTIITL; listed as Homo sapiens) [compound 398]”: “″++″ (≥20% = ++)”. For “399 (YLFEPLYHV; listed as Homo sapiens) [compound 399]”, the Peptide exchange result was “″+++″ (≥50% = +++)”. For the substance “400 (SLLTEQDLWTV; listed as Homo sapiens) [compound 400]”, the Peptide exchange result is given as “″++″ (≥20% = ++)”. Regarding “401 (ILLDDTGLAYI; listed as Homo sapiens) [compound 401]”, the Peptide exchange entry is recorded as “″+++″ (≥50% = +++)”.

As for “402 (VLFSGALLGL; listed as Homo sapiens) [compound 402]”, the Peptide exchange entry is reported as “″++″ (≥20% = ++)”. Next, “403 (KLYDRILRV; listed as Homo sapiens) [compound 403]”: “″++″ (≥20% = ++)”; “405 (ALYDVFLEV; listed as Homo sapiens) [compound 405]”: “″++″ (≥20% = ++)”; “407 (YLMDLINFL; listed as Homo sapiens) [compound 407]”: “″+++″ (≥50% = +++)”.

On to “408 (VLDDSIYLV; listed as Homo sapiens) [compound 408]”, for which the Peptide exchange result was “″++″ (≥20% = ++)”. “409 (LLDAMNYHL; listed as Homo sapiens) [compound 409]”: the Peptide exchange entry is “″++″ (≥20% = ++)”. Take “412 (YLDDLNEGVYI; listed as Homo sapiens) [compound 412]”: the Peptide exchange result is listed as “″++″ (≥20% = ++)”. Next, “426 (RLADKSVLV; listed as Homo sapiens) [compound 426]”: “″+++″ (≥50% = +++)”; “427 (ALLPLSPYL; listed as Homo sapiens) [compound 427]”: “″+++″ (≥50% = +++)”; “428 (KLGHTDILVGV; listed as Homo sapiens) [compound 428]”: “″++″ (≥20% = ++)”. Next, “429 (GLVNDLARV; listed as Homo sapiens) [compound 429]”: “″++″ (≥20% = ++)”; “430 (HLYSSIEHLTT; listed as Homo sapiens) [compound 430]”: “″+++″ (≥50% = +++)”; “431 (SLVNVVPKL; listed as Homo sapiens) [compound 431]”: “″++″ (≥20% = ++)”. Next, “432 (TLIEESAKV; listed as Homo sapiens) [compound 432]”: “″++″ (≥20% = ++)”; “433 (AMLNEPWAV; listed as Homo sapiens) [compound 433]”: “″+++″ (≥50% = +++)”; “434 (KVSNSGITRV; listed as Homo sapiens) [compound 434]”: “″++″ (≥20% = ++)”. Consider “436 (HLAEVSAEV; listed as Homo sapiens) [compound 436]”, for which the Peptide exchange entry is “″+++″ (≥50% = +++)”. Consider “437 (SMAPGLVIQAV; listed as Homo sapiens) [compound 437]”, for which the Peptide exchange result is “″+++″ (≥50% = +++)”. Next, “438 (KLLPLAGLYL; listed as Homo sapiens) [compound 438]”: “″++++″ (≥75% = ++++)”; “439 (YLLQEIYGI; listed as Homo sapiens) [compound 439]”: “″+++″ (≥50% = +++)”; “440 (ALADGVTMQV; listed as Homo sapiens) [compound 440]”: “″++″ (≥20% = ++)”.

Consider “441 (ALLENPKMEL; listed as Homo sapiens) [compound 441]”, for which the Peptide exchange entry is given as “″+++″ (≥50% = +++)”. On to “442 (GLLGGGGVLGV; listed as Homo sapiens) [compound 442]”, for which the Peptide exchange result is “″+++″ (≥50% = +++)”. Consider “444 (GLLRDEALAEV; listed as Homo sapiens) [compound 444]”, for which the Peptide exchange entry is “″+++″ (≥50% = +++)”.

Take “446 (QLIPALAKV; listed as Homo sapiens) [compound 446]”: the Peptide exchange result is “″+++″ (≥50% = +++)”.

In the case of “447 (QLVPALAKV; listed as Homo sapiens) [compound 447]”, the Peptide exchange entry was “″++″ (≥20% = ++)”.

In the case of “448 (NLLETKLQL; listed as Homo sapiens) [compound 448]”, the Peptide exchange result was “″+++″ (≥50% = +++)”.
